Experimental findings from patent US20220213165A1 (University of Texas, published 2022) are described below.

The target in assay [1] is T1, recombinant human EphB4 (rhEphB4) (human, UniProt P54760 16-539, limits assumed).
T1 construct: Bought protein; also called purified EphB4; immobilized EphB4
T1 sequence (looked up): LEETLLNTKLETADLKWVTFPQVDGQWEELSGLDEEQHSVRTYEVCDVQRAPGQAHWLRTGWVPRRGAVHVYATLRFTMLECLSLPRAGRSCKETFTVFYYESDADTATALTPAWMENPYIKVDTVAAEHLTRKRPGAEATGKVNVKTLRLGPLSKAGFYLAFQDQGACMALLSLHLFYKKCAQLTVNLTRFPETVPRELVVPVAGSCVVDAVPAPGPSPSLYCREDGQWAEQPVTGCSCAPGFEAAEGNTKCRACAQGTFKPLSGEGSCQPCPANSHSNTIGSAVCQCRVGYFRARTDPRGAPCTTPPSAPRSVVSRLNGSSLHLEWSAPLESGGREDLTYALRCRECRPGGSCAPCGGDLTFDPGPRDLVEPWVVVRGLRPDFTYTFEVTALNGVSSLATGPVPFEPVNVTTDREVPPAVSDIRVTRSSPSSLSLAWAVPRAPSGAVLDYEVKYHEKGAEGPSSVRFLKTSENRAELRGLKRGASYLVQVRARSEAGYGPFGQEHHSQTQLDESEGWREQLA
The experiment in a line: SPR (BIACore), peptide 1.6-800 nM injected over immobilized rhEphB4. How it is done:
FIG. 10: BIACore sensorgrams of binding of truncated peptides to immobilized rhEphB4. Retention of a peptide on a sensor chip was indicated by a change in response units (RU) over the course of the 180-s injection interval followed by a 210-s washing interval. Peptides in concentrations of 1.6 nM to 800 nM were injected over the rhEphB4 sensor chip, and the magnitude of peptide binding to immobilized EphB4 was recorded.
(§1) Surface plasmon resonance (SPR) binding and competition assays. A stock solution of EphB4 in PBS (100 μg/mL) was diluted to 25 μg/mL with 10 mM sodium acetate buffer (pH 4.5) and immobilized to CM5 sensor chips using the amine coupling reaction according to manufacturer-provided procedures (BIACore). Briefly, the surfaces of the chips in flow cells (FC)-1 and FC-2 were activated by exposing chips to a mixture of 200 mM N-ethyl-N′-dimethylaminopropyl carbodiimide and 50 mM N-hydroxysuccinimide for 7 min. FC-1 was used as a reference surface and was directly deactivated by injecting 1 M ethanolamine at pH 8.5 for 7 min. FC-2 was injected with 25 μg/mL human or murine EphB4 followed by injection of 1 M ethanolamine to block the remaining activated ester groups on the surface. The chips were allowed to stabilize for at least 2 h in HBSEP running buffer before injection of test analytes.
Background: SPR reads the build-up and loss of mass on a sensor chip optically.

The target in assay [2] is T1, recombinant human EphB4 (rhEphB4). Described as above. How it is done: Peptides in concentrations of 1.6 nM to 800 nM were injected over the rhEphB4 sensor chips, and the magnitude of peptide binding to immobilized EphB4 in response units (RU) was recorded.
as §1
The source holds these as a separate data set.

Assay [3] has the same target. The experiment in a line: SPR, peptide over immobilized EphB4.
For assay [4] the target is unchanged. The experiment in a line: SPR competition: BIDEN-AP (2-1000 nM) mixed with human EphB4 (30 nM), injected on EFNB2-Fc-coated CM5 chip.
Assay [5] concerns the target T2, EphB4 on the surface of A2780cp20 cells (human, UniProt P54760 16-987).
T2 construct: whole, on cells; also called EphB4 in human HeyA8 ovarian cancer cells; EphB4 in human ovarian cancer cells A2780cp20
T2 sequence (looked up): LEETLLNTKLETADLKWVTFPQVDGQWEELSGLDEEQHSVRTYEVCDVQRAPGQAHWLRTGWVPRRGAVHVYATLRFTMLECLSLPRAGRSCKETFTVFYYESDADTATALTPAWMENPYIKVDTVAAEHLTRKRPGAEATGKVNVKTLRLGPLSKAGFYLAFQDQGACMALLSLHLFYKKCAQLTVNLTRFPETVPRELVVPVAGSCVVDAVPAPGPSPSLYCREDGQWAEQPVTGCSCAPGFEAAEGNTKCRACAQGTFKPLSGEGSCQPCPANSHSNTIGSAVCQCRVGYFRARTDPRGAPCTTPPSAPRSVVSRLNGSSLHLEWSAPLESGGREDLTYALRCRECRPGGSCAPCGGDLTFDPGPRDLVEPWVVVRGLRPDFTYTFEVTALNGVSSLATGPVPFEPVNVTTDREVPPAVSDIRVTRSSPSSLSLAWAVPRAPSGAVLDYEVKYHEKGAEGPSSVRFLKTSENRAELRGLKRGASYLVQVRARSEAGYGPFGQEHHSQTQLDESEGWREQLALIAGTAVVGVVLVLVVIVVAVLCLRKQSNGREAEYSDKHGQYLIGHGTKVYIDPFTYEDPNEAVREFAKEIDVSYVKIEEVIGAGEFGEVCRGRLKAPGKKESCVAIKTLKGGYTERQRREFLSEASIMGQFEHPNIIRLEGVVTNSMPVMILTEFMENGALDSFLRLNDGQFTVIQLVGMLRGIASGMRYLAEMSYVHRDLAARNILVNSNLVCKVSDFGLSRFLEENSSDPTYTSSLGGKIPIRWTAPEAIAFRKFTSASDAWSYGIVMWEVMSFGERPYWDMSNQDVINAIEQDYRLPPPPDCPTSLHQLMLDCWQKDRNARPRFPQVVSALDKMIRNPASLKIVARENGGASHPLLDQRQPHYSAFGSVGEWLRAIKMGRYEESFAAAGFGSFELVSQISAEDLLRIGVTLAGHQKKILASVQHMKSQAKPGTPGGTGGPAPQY
Kind of assay: flow cytometry competition: A2780cp20 cells with EFNB2-Fc (20 nM) and BIDEN-AP (0-100 µM), PE-labeled anti-Fc detection. As for the experimental part: D-Tyr-P3 is highlighted in red. […] Vertical axes, in response units (RU), represent binding of the peptide to immobilized EphB4. […] Individual duplicates were performed in each condition. Data are presented as mean±SD.
Cell-based binding assay. […] Cells were analyzed in a Cellquest fluorocytometer (BD Bioscience, San Jose, Calif.). The experiments were run in duplicate.
A general note: A flow cytometer gives signals particle by particle.

The target in assay [6] is T1, recombinant human EphB4 (rhEphB4). Kind of assay: SPR, peptide over immobilized EphB4, 1:1 mass transfer interaction model. How it is done:
as §1

Square brackets hold non-standard residues; d marks the D form. Ends that are not written are not given here.

For orientation: Kd means the constant that tells how readily two partners part at equilibrium. Usually IC50 stands for the midpoint of a concentration-inhibition curve.

B1: TNYLFSPNGPIAR (peptide)
peptide: TNYLFSPNGPIAR
notes: also called TNYL-RAW truncated of C-terminus Ala-Trp (P14-P15)
In the case of B1, the Kd in assay [1] worked out at 0.192 µM.
As for TNYLFSPNGPIAR[dA]W (also called TNYL-RAW with D-Ala at P14) [TNYLFSPNGPIAR(dA)W], the Kd in assay [2] came to 0.043 µM.
As to TNYL[dF]SPNGPIARAW [B4-005, TNYL(dF)SPNGPIARAW], the Kd in assay [2] is 0.841 µM; in assay [3], 0.075 µM.
T[dN]YLFSPNGPIARAW (also called TNYL-RAW with D-Asn at P2) [T(dN)YLFSPNGPIARAW]: the Kd in assay [2] is 0.005 µM.

B2: BIDEN-AP (bi-directional ephrin agonist peptide), TN(dY)LFSPNGPIARAW (peptide)
peptide: TN[dY]LFSPNGPIARAW
notes: Synthetic 15-mer made by solid phase synthesis on Rink resin; also called EphB4 agonist peptide
B2: the IC50 was 0.004 µM in assay [4] and around 1 µM in assay [5]. For the same molecule, the Kd in assay [6] came out at 0.007 µM.

B3: YLFSPNGPIARAW (peptide)
peptide: YLFSPNGPIARAW
notes: also called TNYL-RAW truncated of N-terminus Thr-Asn (P1-P2)
In the case of B3, in assay [1], the dissociation constant Kd was determined as 0.0052 µM.

B4: B4-001, Cyclo(KTNYLFSPNGPIARAWD) (peptide)
peptide: KTNYLFSPNGPIARAWD
modifications: not fully specified (bridges); printed as Cyclo(KTNYLFSPNGPIARAWD); also: cyclic, ring-closing atoms not given here
Turning to B4, the equilibrium dissociation constant (Kd) in assay [3] came out at 0.0044 µM.

B5: NYLFSPNGPIARAW (peptide)
peptide: NYLFSPNGPIARAW
notes: also called TNYL-RAW truncated of N-terminus Thr-P1
On to B5, for which the Kd in assay [1] is 0.0042 µM.
For the molecule TNYLFSPNGPIARA[dW] (also called TNYL-RAW with D-Trp at P15) [TNYLFSPNGPIARA(dW)], in assay [2], the Kd is 0.008 µM.
Turning to TNY[dL]FSPNGPIARAW [B4-004, TNY(dL)FSPNGPIARAW], the dissociation constant Kd in assay [3] was 0.065 µM.

B6: TNYL-RAW (peptide)
peptide: TNYLFSPNGPIARAW
notes: also called EphB4 antagonist TNYL-RAW peptide
As to B6, the Kd in assay [3] stood at 0.0031 µM.
With TNYLF[dS]PNGPIARAW [B4-006, TNYLF(dS)PNGPIARAW], the Kd in assay [2] stood at 7.7 µM.

B7: B4-008, TNYLFSPNGPIARA (peptide)
peptide: TNYLFSPNGPIARA
notes: also called TNYL-RAW truncated of C-terminus Trp-P15
Take B7: the figures for the Kd in assay [3] and in assay [1] were 0.013 µM and 0.06 µM, respectively.
Take TNYLFSPNGPIARAW (D-Arg at position 13) [B4-002, TNYLFSPNGPIA(dR)AW]: the dissociation constant (Kd) in assay [3] came out at 0.039 µM.
